These results are taken from US20180291110A1 (Hoffmann-La Roche, published 2018).

Substitutions are numbered along the chain they refer to.

The assay concerns the target T1, human transferrin receptor (recombinant, for surface plasmon resonance) (human, UniProt P02786 89-760).
T1 construct: also called huTfR; human transferrin receptor-biotinylated
As to the kind of experiment: SPR 25C.

T1 sequence (P02786 89-760 limits assumed): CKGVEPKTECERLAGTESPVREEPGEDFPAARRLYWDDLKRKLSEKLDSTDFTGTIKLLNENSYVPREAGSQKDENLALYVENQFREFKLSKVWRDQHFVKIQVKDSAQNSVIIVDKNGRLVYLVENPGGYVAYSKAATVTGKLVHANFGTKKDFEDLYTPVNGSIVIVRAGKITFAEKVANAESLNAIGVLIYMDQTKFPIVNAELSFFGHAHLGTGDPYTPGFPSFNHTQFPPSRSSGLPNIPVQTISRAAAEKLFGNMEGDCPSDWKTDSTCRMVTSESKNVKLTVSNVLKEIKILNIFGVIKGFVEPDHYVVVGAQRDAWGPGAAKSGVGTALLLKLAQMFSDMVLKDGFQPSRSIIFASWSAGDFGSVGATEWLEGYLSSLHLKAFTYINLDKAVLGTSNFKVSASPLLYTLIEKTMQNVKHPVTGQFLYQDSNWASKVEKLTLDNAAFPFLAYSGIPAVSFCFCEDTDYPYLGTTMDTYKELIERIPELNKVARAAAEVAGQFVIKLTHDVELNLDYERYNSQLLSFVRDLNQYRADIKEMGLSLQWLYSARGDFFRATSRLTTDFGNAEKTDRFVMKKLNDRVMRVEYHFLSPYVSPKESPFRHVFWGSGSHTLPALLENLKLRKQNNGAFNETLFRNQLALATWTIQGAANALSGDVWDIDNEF

B1: 2/99 VH1/VL14 (antibody, V domains shown)
VH: VQLVETGGGLIQPGGSLRLSCAASGFSLSSYAMSWVRQAPGKGLEWVGYIWSGGSTDYADSVKGRFTISRDNSKNTLYLQMNSLRAEDTAVYYCARRYGTSYPDYGDANGFDPWGQGTLVTVSS
VL: DIVMTQSPDSLAVSLGERATINCKSSQSISSYLSWYQQKPGQRPKLLIYRASTLASGVPDRFSGSGSGTDFTLTISSLQAEDVAVYYCQQSYSSSNVDNTFGGGTKVEIK
On to B1, for which the off-rate constant (koff) came to 0.00299 s⁻¹.

B2: 2/99 VH9/VL14 (antibody, V domains shown)
VH: B1 VH with V1Q, V4L, T6S, I11V, S27T, L28F, R96K
VL: B1 VL
With B2, the koff turned out to be 0.00332 s⁻¹.

B3: 2/99 VH13/VL14 (antibody, V domains shown)
VH: QVQLQESGPGLVKPSETLSLTCTVSGFSLSSYAMSWIRQPPGKGLEWIGYIWSGGSTDYNPSLKSRVTISVDTSKNQVSLKLSSVTAADTAVYYCARRYGTSYPDYGDANGFDPWGQGTLVTVSS
VL: B1 VL
For the molecule B3, the koff came to 0.00222 s⁻¹.

B4: 2/99 VH2/VL14 (antibody, V domains shown)
VH: EVQLVETGGGLIQPGGSLRLSCAASGFSLSSYAMSWVRQAPGKGLEWVGYIWSGGSTDYADSVKGRFTISRDNSKNTLYLQMNSLRAEDTAVYYCARRYGTSYPDYGDANGFDPWGQGTLVTVSS
VL: B1 VL
For B4, the koff worked out at 0.00244 s⁻¹.

B5: 2/99 VH11/VL14 (antibody, V domains shown)
VH: B1 VH with V1Q, V4L, T6S, I11V
VL: B1 VL
B5: the off-rate constant (koff) was determined as 0.00351 s⁻¹.

B6: 2/99 VH6/VL14 (antibody, V domains shown)
VH: B1 VH with V1Q, V47I
VL: B1 VL
B6: the koff was found to be 0.0022 s⁻¹.

B7: 2/99 VH5/VL14 (antibody, V domains shown)
VH: B1 VH with V1Q, Q2S, L3M, V4E, Q116P
VL: B1 VL
With B7, the koff is 0.00233 s⁻¹.

B8: 2/99 VH12/VL14 (antibody, V domains shown)
VH: B3 VH with V78F
VL: B1 VL
As for B8, the koff came out at 0.00546 s⁻¹.

B9: 2/99 VH8/VL14 (antibody, V domains shown)
VH: QQLVETGGGLIQPGGSLRLSCAASGFSLSSYAMSWVRQAPGKGLEWIGYIWSGGSTDYASWAKGRFTISKTSTTLYLQMNSLRAEDTAVYYCARRYGTSYPDYGDANGFDPWGQGTLVTVSS
VL: B1 VL
In the case of B9, the koff turned out to be 0.00104 s⁻¹.

B10: 2/99 VH18/VL14 (antibody, V domains shown)
VH: B3 VH with E16Q, P40H, N60A, V78F
VL: B1 VL
For B10, the koff is 0.003 s⁻¹.

B11: 2/99 VH7/VL14 (antibody, V domains shown)
VH: B1 VH with V1Q, V47I, D60S, S61W, V62A
VL: B1 VL
B11: the koff amounted to 0.00153 s⁻¹.

B12: 2/99 VH1/VL15 (antibody, V domains shown)
VH: B1 VH
VL: B1 VL with S34I, R43P, S91A
As for B12, the koff was 0.00669 s⁻¹.

B13: 2/99 VH23-DANG/VL14 (antibody, V domains shown)
VH: QSMQESGPGLVKPSQTLSLTCTVSGFSLSSYAMSWIRQHPGKGLEWIGYIWSGGSTDYASWAKSRVTISKTSTTVSLKLSSVTAADTAVYYCARRYGTSYPDYGDANGFDPWGQGTLVTVSS
VL: B1 VL
As for B13, the off-rate (koff) was 0.000733 s⁻¹.

B14: 2/99 VH2/VL15 (antibody, V domains shown)
VH: B4 VH
VL: B1 VL with S34I, R43P, S91A
As to B14, the koff worked out at 0.00638 s⁻¹.

B15: 2/99 VH20/VL12 (antibody, V domains shown)
VH: QSMQESGPGLVKPSQTLSLTCTVSGFSLSSYAMSWIRQHPGKGLEWIGYIWSGGSTDYAPSLKSRVTISVDTSKNQVSLKLSSVTAADTAVYYCARRYGTSYPDYGDANGFDPWGQGTLVTVSS
VL: DIQMTQSPSSLSASVGDRVTITCRASQSISSYLAWYQQKPGKAPKLLIYRASTLASGVPSRFSGSRSGTDFTLTISSLQPEDFATYYCQQHYSSSNVDNTFGGGTKVEIK
As for B15, the koff came out at 0.001 s⁻¹.

B16: 2/99 VH15/VL14 (antibody, V domains shown)
VH: B15 VH with S2Q, M3L, Q15E, I36V, H39P, A59N
VL: B1 VL
Regarding B16, the koff worked out at 0.00194 s⁻¹.

B17: 2/99 VH21/VL12 (antibody, V domains shown)
VH: B15 VH with P60S, S61W, L62A
VL: B15 VL
With B17, the koff was 0.00754 s⁻¹.

B18: 2/99 VH21/VL14 (antibody, V domains shown)
VH: B15 VH with P60S, S61W, L62A
VL: B1 VL
Turning to B18, the koff was found to be 0.00103 s⁻¹.

B19: 2/99 VH20/VL14 (antibody, V domains shown)
VH: B15 VH
VL: B1 VL
In the case of B19, the off-rate (koff) was found to be 0.00239 s⁻¹.

B20: 2/99 VH22/VL14 (antibody, V domains shown)
VH: B15 VH with I36V, P60S, S61W, L62A
VL: B1 VL
For B20, the koff was 0.00112 s⁻¹.

B21: 2/99 VH19/VL14 (antibody, V domains shown)
VH: B15 VH with V77F
VL: B1 VL
Consider B21, for which the koff worked out at 0.00796 s⁻¹.

B22: 2/99 VH16/VL14 (antibody, V domains shown)
VH: B15 VH with S2Q, M3L, Q15E, I36V, H39P, A59N, Q116P
VL: B1 VL
For the molecule B22, the koff turned out to be 0.00175 s⁻¹.

B23: 2/99 VH17/VL14 (antibody, V domains shown)
VH: B15 VH with S2Q, M3L, Q15E, I36V, H39P, A59N, V70K, Q116P
VL: B1 VL
For B23, the koff was 0.00105 s⁻¹.

B24: 2/99 VH22/VL12 (antibody, V domains shown)
VH: B15 VH with I36V, P60S, S61W, L62A
VL: B15 VL
Consider B24, for which the koff came out at 0.00644 s⁻¹.
